Laboratory results: patent US20030232742A1, “FAP-activated anti-tumor compounds” (priority 2000, published 2003)
*1 amine or outer side, *2 acyl side, *3 side chain or, on linkers, in order; H or OH if unused. Where no end group is shown, it is not given here. [ ]: non-standard residue; d: D form. The star is where a group is joined. morpholino‑(ethyloxycarbonyl) = morpholino-(ethyloxycarbonyl) N-terminal blocking group, O=C(OCCN1CCOCC1)*; NH(4-MeO-2-naphthyl) = COc1cc(N*)cc2ccccc12; Glutaryl = O=C(CCCC(=O)[*:2])[*:1]; Suc = O=C(CCC(=O)[*:2])[*:1]; 4Amb = NCc1ccc(C(=O)O)cc1; NMeA = CN[C@@H](C)C(=O)O

Biological target: T1, FAP (Homo sapiens, UniProt Q12884)
T1 construct: Cell extract from 293 cells stably transfected with FAP prepared as described; expressed in transfected cells; detergent extract used
T1 sequence (Q12884 1-760): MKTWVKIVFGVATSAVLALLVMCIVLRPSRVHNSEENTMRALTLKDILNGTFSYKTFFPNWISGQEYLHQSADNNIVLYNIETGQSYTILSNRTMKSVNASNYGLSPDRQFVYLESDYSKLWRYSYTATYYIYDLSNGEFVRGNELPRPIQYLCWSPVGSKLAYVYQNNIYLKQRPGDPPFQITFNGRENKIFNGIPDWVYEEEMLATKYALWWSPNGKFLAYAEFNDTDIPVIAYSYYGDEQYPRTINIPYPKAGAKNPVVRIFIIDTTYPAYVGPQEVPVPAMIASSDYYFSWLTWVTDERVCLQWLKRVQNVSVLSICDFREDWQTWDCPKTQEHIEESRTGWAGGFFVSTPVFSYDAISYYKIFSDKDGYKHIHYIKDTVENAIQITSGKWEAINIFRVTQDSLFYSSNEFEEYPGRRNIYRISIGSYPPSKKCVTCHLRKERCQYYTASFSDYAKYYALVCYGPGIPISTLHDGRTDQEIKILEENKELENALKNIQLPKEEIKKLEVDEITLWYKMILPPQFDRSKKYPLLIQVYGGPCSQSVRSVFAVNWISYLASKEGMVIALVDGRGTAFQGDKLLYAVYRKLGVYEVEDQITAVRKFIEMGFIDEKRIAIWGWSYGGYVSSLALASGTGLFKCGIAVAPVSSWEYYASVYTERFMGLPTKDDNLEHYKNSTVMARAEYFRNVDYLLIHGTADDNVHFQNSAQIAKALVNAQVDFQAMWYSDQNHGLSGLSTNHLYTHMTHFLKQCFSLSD
Assay: Assay for cleavage of MNA substrates by FAP
Assay type: biochemical
Settings: 1 ng FAP enzyme in 293 cell extract, 20 μl 2.5 mM substrate (a few diluted further), room temperature 1 hour, control 293 extract subtracted
Description: To identify preferred FAPα peptide substrates, blocked oligopeptides composed of natural amino carboxylic acids were synthesized and coupled to Proline-4-methoxy-β-napthylamine (Pro-MNA) using methods known to the art (E. Wünsch, Synthese von Peptiden, in Methoden der organischen Chemie, Houben-Weyl (Eds. E. Müller, 0. Bayer), Vol. XV, Part 1 and 2, Georg Thieme Verlag, Stuttgart, 1974). The turnover and cleavage rate have been determined with the aid pf the following assay:
Assay for Cleavage of MNA Substrates by FAP:
Cell extract from 293 cells stably transfected with FAP prepared as described (see Park, et al., Fibroblast Activation Protein, a Dual Specificity Serine Protease expressed in human tumor stromal fibroblasts. (1999) J. Biol. Chem. 36505-12.). A similar extract was also prepared from parental 293 control cells without FAP. The FAP concentration in the FAP-transfected cell extract was estimated by immunoassay and 1 ng enzyme (diluted in buffer A) was used per assay. FAP-negative 293 control cell extract was used at the same dilution (also in buffer A) as a negative control. Substrate was initially dissolved in dimethylformamide at a concentration of 200 mM and diluted in buffer A to a final concentration of 2.5 mM. A few substrates were not soluble at this concentration and had to be diluted further.
10 μl 10% DMSO in buffer A
70 μl diluted FAP cell extract containing 1 ng FAP enzyme (OR control 293 cell extract without FAP)
Mix, incubate at room temperature for 1 hour, and measure fluorescence in Fluorostar fluorimeter at the following wavelengths:
MNA conjugates: Excitation: 355 nm, Emission: 405 nm.
The fluorescence measured in the samples treated with control 293 control cell extracts without FAP is subtracted from the values measured in the samples treated with 1 ng FAP enzyme.

Substance | % Turnover [%] | Cleavage [µM]
4-Fluorphenylacetyl-Gly-Pro-MNA | 0.42 | 2.08
4-Aminomethylbenzoyl-Pro-Ala-Gly-Pro-MNA ([4Amb]PAGP-{NH(4-MeO-2-naphthyl)}) | 0.24 | 1.21
Pyrid-3-ylmethyloxycarbonyl-2-Aze-Ala-Gly-Pro-MNA | 3.42 | 17.1
Malonyl-Pro-Ala-Gly-Pro-MNA (malonyl-PAGP-{NH(4-MeO-2-naphthyl)}) | 0.21 | 1.05
3-Fluorphenylacetyl-Gly-Pro-MNA | 0.35 | 1.77
4-Hydroxyphenylacetyl-Pro-Ala-Gly-Pro-MNA ({4‑hydroxyphenylacetyl}-PAGP-{NH(4-MeO-2-naphthyl)}) | 0.69 | 1.72
Glutaryl-Pro-Ala-Gly-Pro-MNA (Glutaryl-PAGP-{NH(4-MeO-2-naphthyl)}; SMILES COc1cc(NC(=O)[C@@H]2CCCN2C(=O)CNC(=O)[C@H](C)NC(=O)[C@@H]2CCCN2C(=O)CCCC(=O)O)cc2ccccc12) | 0.3 | 1.48
4-Pyridylmethyloxycarbonyl-Gly-Pro-MNA | 1.18 | 5.92
Prazin-2-ylcarbonyl-Pro-Ala-Gly-Pro-MNA ({pyrazin‑2‑ylcarbonyl}-PAGP-{NH(4-MeO-2-naphthyl)}) | 0.56 | 0.7
Pyrid-4-ylmethyloxycarbonyl-Pip-Ala-Gly-Pro-MNA | 0.43 | 2.16
Morpholino-(ethyloxycarbonyl)-Pro-Ala-Gly-Pro-MNA ({morpholino‑(ethyloxycarbonyl)}-PAGP-{NH(4-MeO-2-naphthyl)}; SMILES COc1cc(NC(=O)[C@@H]2CCCN2C(=O)CNC(=O)[C@H](C)NC(=O)[C@@H]2CCCN2C(=O)OCCN2CCOCC2)cc2ccccc12) | 0.65 | 3.25
Pyridin-3-ylmethoxycarbonyl-Pro-Ala-Gly-Pro-MNA ({pyridin‑3‑ylmethoxycarbonyl}-PAGP-{NH(4-MeO-2-naphthyl)}) | 1.77 | 8.86
1-Methylpyrrol-2-ylcarbonyl Pro-Ala-Gly-Pro-MNA ({1‑methylpyrrol‑2‑ylcarbonyl}-PAGP-{NH(4-MeO-2-naphthyl)}) | 0.13 | 0.33
4-Aminomethylphenylacetyl-Pro-Ala-Gly-Pro-MNA ({4‑aminomethylphenylacetyl}-PAGP-{NH(4-MeO-2-naphthyl)}) | 0.26 | 1.28
Pyrid-4-ylmethyloxycarbonyl-2-Aze-Ala-Gly-Pro-MNA | 1.61 | 8.07
2-Morpholino-ethyl-Pro-Ala-Gly-Pro-MNA ({2‑morpholino‑ethyl}-PAGP-{NH(4-MeO-2-naphthyl)}) | 0.26 | 0.64
3-Pyridylacetyl-Gly-Pro-MNA | 1.82 | 9.12
4-(2-Aminothiazol-5-yl)-acetyl-Pro-Ala-Gly-Pro-MNA ({(2-aminothiazol-5-yl)‑acetyl}-PAGP-{NH(4-MeO-2-naphthyl)}) | 0.39 | 1.94
2-Fluorphenylacetyl-Gly-Pro-MNA | 0.26 | 1.28
Succinyl-Pro-Ala-Gly-Pro-MNA (Suc-PAGP-{NH(4-MeO-2-naphthyl)}; SMILES COc1cc(NC(=O)[C@@H]2CCCN2C(=O)CNC(=O)[C@H](C)NC(=O)[C@@H]2CCCN2C(=O)CCC(=O)O)cc2ccccc12) | 0.29 | 1.44
3,5-Difluorphenylacetyl-Gly-Pro-MNA | 2.26 | 2.26
3 -Pyridylmethyloxycarbonyl-Gly-Pro-MNA | 0.72 | 3.58
Pyrid-3-ylmethyloxycarbonyl-MeAla-Ala-Gly-Pro-MNA ({pyrid‑3‑ylmethyloxycarbonyl}-[NMeA]AGP-{NH(4-MeO-2-naphthyl)}) [MeAla represents a N-methylalanin moiety] | 1.27 | 6.31
4-Dimethylaminobenzoyl-Pro-Ala-Gly-Pro-MNA ({4‑dimethylaminobenzoyl}-PAGP-{NH(4-MeO-2-naphthyl)}) | 0.37 | 1.85
4-Pyridylmethyloxycarbonyl-Pro-Ala-Gly-Pro-MNA ({4‑pyridylmethyloxycarbonyl}-PAGP-{NH(4-MeO-2-naphthyl)}) | 1.28 | 6.38
4-Amino-Phenylacetyl-Gly-Pro-MNA | 0.6 | 3
3-Carboxyphenylsulfonyl-Pro-Ala-Gly-Pro-MNA ({3‑carboxyphenylsulfonyl}-PAGP-{NH(4-MeO-2-naphthyl)}) | 0.58 | 2.88
Morpholino-carbonyl-Pro-Ala-Gly-Pro-MNA ({morpholino‑carbonyl}-PAGP-{NH(4-MeO-2-naphthyl)}) | 0.6 | 2.99
Pyrid-3-ylmethyloxycarbonyl-Pip-Ala-Gly-Pro-MNA | 0.56 | 2.78

Biological target: T2, FAPα dimers (Homo sapiens, UniProt Q12884)
T2 sequence (Q12884 1-760): T1 sequence (Q12884 1-760)
Assay: not given
Settings: membrane overlay assay, WO 97/34927; cited from earlier work

Substance | cleavage of dipeptide coumarin substrate
Ala-Pro-7-amino-4-trifluoromethyl coumarin | able to cleave
Gly-Pro-7-amino-4-trifluoromethyl coumarin | able to cleave
Lys-Pro-7-amino-4-trifluoromethyl coumarin | able to cleave
